Data on one substance can be found in publication PMC7517697.

The subject of the data set is T1, CATH-B1 (mature cathelicidin-B1 peptide) (chicken).
T1 sequence: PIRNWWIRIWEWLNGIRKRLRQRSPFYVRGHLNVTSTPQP
The data set can be described thus: ITC. The settings on record: 75% PBS, 37 °C, dH -65.5 kJ/mol, dS -73.5 J/mol as printed, ITC: 75% PBS (PBS/H2O 3:1 v/v), 200 µM CATH-B1 in syringe titrated in 1 µL injections at 300 s intervals into ODN-2006 (25 nM as printed), pH not stated.

The substance ODN-2006 registered a Kd of 64 nM.
